From article PMC2748697, “Capzb2 Interacts with β-Tubulin to Regulate Growth Cone Morphology and Neurite Outgrowth” (PLoS Biology, 2009)

Biological target: T1, GST-Capza2 (mouse, UniProt P47754 1-286)
T1 construct: Capza2, α2 subunit of F-actin capping protein, from E17 mouse cDNA; primers run from the start codon (atg gcg gat ctg) to the stop codon; pGEX-4T-2 vector; The methods of the native gel say 'Capza2', the legend 'GST-Capza2'; also called α2-subunit; the other CP subunit; source: E. coli BL21-DE3 or ArcticExpress (DE3)RP, purified (glutathione sepharose)
Assay: native gel or EMSA; 1 µM GST-Capzb2 or GST-Capzb2Δ106–140 with 1 µM GST-Capza2, 10 min at 4°C, 4%–20% Tris-glycine native gel, bands excised and identified by Western blot
Conditions: both partners purified

B1: GST-Capzb2Δ106–140 (natural protein, mouse, UniProt P47757-2 1-272, looked up)
chain: MSDQQLDCALDLMRRLPPQQIEKNLSDLIDLVPSLCEDLLSSVDQPLKIARDKVVGKDYLLCDYNRDGDSYRSPWSNKYDPPLEDGAMPSARLRKLEVEANNAFDSKKIKGCWDSIHVVEVQEKSSGRTAHYKLTSTVMLWLQTNKSGSGTMNLGGSLTRQMEKDETVSDCSPHIANIGRLVEDMENKIRSTLNEIYFGKTKDIVNGLRSVQTFADKSKQEALKNDLVEALKRKQQC
notes: pGEX-4T-2 vector; also called deletion mutant; source: E. coli BL21-DE3 or ArcticExpress (DE3)RP, purified (glutathione sepharose)
binding result: binds
